From patent US20200200749A1 (published 2020)
Like-named read-outs stand apart in the source and are kept apart here.

Key:
Assay in all cases: ELISA
BDBV GP [1] = molecular target: T1, BDBV GP (BDBV (Bundibugyo ebolavirus))
MARV GP [2] = molecular target: MARV GP
[3] = molecular target: T2, EBOV GP (recombinant, full-length extracellular domain) (EBOV (Ebola Zaire), UniProt Q05320 33-650)
T2 chain: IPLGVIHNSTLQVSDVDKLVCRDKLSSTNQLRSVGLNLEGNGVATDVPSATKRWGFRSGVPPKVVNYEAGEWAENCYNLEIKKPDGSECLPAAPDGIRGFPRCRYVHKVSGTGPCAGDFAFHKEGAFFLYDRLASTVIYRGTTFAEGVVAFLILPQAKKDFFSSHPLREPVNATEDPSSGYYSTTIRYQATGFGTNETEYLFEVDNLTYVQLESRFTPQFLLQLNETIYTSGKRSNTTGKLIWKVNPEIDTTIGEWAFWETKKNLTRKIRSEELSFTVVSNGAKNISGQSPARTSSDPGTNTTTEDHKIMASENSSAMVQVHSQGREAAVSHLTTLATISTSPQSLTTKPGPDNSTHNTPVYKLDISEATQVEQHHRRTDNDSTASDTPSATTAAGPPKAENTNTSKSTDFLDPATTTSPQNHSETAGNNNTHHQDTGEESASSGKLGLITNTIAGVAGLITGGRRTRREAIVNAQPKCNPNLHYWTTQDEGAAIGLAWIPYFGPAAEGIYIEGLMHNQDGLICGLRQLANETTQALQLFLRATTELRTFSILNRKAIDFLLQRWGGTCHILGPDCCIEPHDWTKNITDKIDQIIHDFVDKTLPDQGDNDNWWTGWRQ

EBOV sGP = molecular target: T3, EBOV sGP (EBOV (Ebola Zaire), UniProt P60170 33-324)
T3 chain: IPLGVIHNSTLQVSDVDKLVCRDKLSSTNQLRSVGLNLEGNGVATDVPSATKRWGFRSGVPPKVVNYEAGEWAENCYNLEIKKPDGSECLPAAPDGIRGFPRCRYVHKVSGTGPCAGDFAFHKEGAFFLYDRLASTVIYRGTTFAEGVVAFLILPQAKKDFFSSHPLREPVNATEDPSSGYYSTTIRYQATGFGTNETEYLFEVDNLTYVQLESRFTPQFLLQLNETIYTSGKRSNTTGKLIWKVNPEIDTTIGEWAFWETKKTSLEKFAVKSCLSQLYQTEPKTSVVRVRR

SUDV GP (recombinant) = molecular target: T4, SUDV GP (recombinant) (SUDV (Sudan ebolavirus), UniProt Q66814 33-650)
T4 chain: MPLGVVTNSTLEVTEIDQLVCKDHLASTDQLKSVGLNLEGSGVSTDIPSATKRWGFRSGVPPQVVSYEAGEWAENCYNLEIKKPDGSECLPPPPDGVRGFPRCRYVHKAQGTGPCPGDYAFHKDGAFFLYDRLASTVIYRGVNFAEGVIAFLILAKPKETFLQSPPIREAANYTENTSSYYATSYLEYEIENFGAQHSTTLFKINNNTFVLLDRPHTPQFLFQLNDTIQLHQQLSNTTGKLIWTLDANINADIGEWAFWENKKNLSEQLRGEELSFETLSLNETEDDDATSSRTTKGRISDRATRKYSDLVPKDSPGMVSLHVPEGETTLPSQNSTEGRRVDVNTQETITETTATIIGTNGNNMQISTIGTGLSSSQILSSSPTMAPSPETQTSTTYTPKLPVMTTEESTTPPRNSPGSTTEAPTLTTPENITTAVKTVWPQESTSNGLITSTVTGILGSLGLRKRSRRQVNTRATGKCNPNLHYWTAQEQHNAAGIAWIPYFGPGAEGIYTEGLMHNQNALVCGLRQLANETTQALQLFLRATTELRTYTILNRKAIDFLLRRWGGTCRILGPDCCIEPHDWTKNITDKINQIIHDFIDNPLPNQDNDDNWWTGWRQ

BDBV GP [4] = molecular target: T1, BDBV GP; remark: listed apart in the source
BDBV sGP = BDBV sGP (BDBV (Bundibugyo ebolavirus))
MARV GP [5] = molecular target: MARV GP; remark: listed apart in the source

B1: 49 (antibody, V domains shown)
VH: EVQLVESGGGLVQPGGSLRLSCAASGFTFSSYEINWVRQAPGRGLEWVSYISSSGRTIYYADSVKGRFTISRDNAKNSLYLQMNSLRAEDTAVYYCAREPYVDGILYGAGDSYFDYWGQGTLVTVSS
VL: DIQMTQSPSSLSASVGDRVTITCRASQSISNYLNWYQQKPGKAPKVLIYAASSLQSGVSSRFSGSGSGTDFTLTISSLQPEDFATYFCQQSYNTPPVTFGQGTRLEIK
EC50 (BDBV GP [1]): > 10 µg/mL
EC50 (MARV GP [2]): > 10 µg/mL

B2: EBOV49 (antibody, V domains shown)
VH: EVQLVESGGGLVQPGGSLRLSCAASGFTFSSYEINWVRQAPGRGLEWVSYISSSGRTIYYADSVKGRFTISRDNAKNSLYLQMNSLRAEDTAVYYCAREPYVDGILYGAGDSYFDYWGQGTLVTVSS
VL: DIQMTQSPSSLSASVGDRVTITCRASQSISNYLNWYQQKPGKAPKVLIYAASSLQSGVSSRFSGSGSGTDFTLTISSLQPEDFATYFCQQSYNTPPVTFGQGTRLEIK
EC50 [3]: 0.262 µg/mL
EC50 (EBOV sGP): 0.061 µg/mL
EC50 (SUDV GP (recombinant)): > 10 µg/mL

B3: 223 (antibody, V domains shown)
VH: QVQLQQWGAGLLKPSETLSLTCAVYGGSFTTTYWNWIRQPPGKGLEWIGEVNYSGNANYNPSLKGRVAISVDTSKNQFSLRLNSVTAADTAIYYCTSRIRSHIAYSWKGDVWGKGTTVTVSS
VL: EIVMTQSPGTLSLSPGERATLSCRASQSVPRNYIGWFQQKPGQAPRLLIYGASSRAAGFPDRFSGSGSGTDFTLTITRLEPEDFAMYYCHQYDRLPYTFGQGTKLEIK
EC50 (BDBV GP [4]): 0.022 µg/mL
EC50 (BDBV sGP): > 10 µg/mL
EC50 (MARV GP [5]): > 10 µg/mL

B4: 52 (antibody, V domains shown)
VH: QVQLQESGPGLVKPSETLSLNCTVSGGSISSYYWSWIRQPPGKGLEWIGYIYDSGRTKYNPSLKSRVTISLDTSKNQFSLKLSSVTAADTAVYYCASLGPFDKLWFGELLPGWFDPWGQGTLVTVSS
VL: EIVLTQSPATLSLSPGGRATLSCRASQSVHNYLAWYQQKSGQAPRLLIYDASNRATGIPARFSGSGSGTDFTLTISSLEPDDFAVYYCQHRSNWLTFGGGTKVEIK
EC50 (BDBV GP [1]): 1.84 µg/mL
EC50 (MARV GP [2]): > 10 µg/mL

B5: EBOV52 (antibody, V domains shown)
VH: QVQLQESGPGLVKPSETLSLNCTVSGGSISSYYWSWIRQPPGKGLEWIGYIYDSGRTKYNPSLKSRVTISLDTSKNQFSLKLSSVTAADTAVYYCASLGPFDKLWFGELLPGWFDPWGQGTLVTVSS
VL: EIVLTQSPATLSLSPGGRATLSCRASQSVHNYLAWYQQKSGQAPRLLIYDASNRATGIPARFSGSGSGTDFTLTISSLEPDDFAVYYCQHRSNWLTFGGGTKVEIK
EC50 [3]: 0.712 µg/mL
EC50 (EBOV sGP): 0.082 µg/mL
EC50 (SUDV GP (recombinant)): > 10 µg/mL

B6: 270 (antibody, V domains shown)
VH: QVQLQESGPGLVKPSQTLSLTCTVSGASISRGLYYWSWIRQPAGKGLEWIGRIYTSGSINYNPSLKSRVTISVDTSKNQFSLRLSSVIATDTAVYYCVRDAPWGDFLTGYFGFYGMDVWGQGTLVTVSS
VL: DIVMTQSPSSLSASVGDRVTITCRASQSINTYLNWYQQKPGKAPKFLIYAASSLHSGVPSRFSGSGSGTDFTLTINSLQPDDFATYYCQQSFTTPYTFGQGTKLEIK
EC50 (BDBV GP [4]): 0.154 µg/mL
EC50 (BDBV sGP): 0.025 µg/mL
EC50 (MARV GP [5]): > 10 µg/mL

B7: 324 (antibody, V domains shown)
VH: QVQLVQSGAEVKKPGASVKVSCKTSGYTFTSFEIHWVRQGSGQGLEWMGRMNPKSGDTVSAQKFQGRVTLTRDTSINAAYMELGSLSSEDTAVYYCARGPHVGEVVPGLMAGTYYFPLDVWGQGTLVTVSS
VL: DIQMTQSPSTLSASIGDRVTITCRASQSISRWLAWYQQKPGKAPKLLIYKVSDLQSGVPSRFSGSGYGTEFTLTIGSLQPDDLATYYCQQYDTYPWTFGQGTKLEIK
EC50 (BDBV GP [4]): 0.053 µg/mL
EC50 (BDBV sGP): 0.012 µg/mL
EC50 (MARV GP [5]): > 10 µg/mL

B8: 289 (antibody, V domains shown)
VH: QVQLVQSGAEVKKPGSSVKVSCKASGATFGSDTVTWVRQAPGQGLEWMGGIIPFFGEANYAQRFQGRVTITADKSTNTAYMELSSLRSEDTAVYFCARQINEMATFGEIHYYTYMDVWGQGTLVTVSS
VL: GSELTQDPAVSVALGQTVRITCQGDSLRNYYASWYQQKPRQAPVLVFYGKNNRPSGIPDRFSGSSSGNTASLTISGAQAEDEADYYCNSRDSSSNHLVFGGGTKLTVLS
EC50 (BDBV GP [4]): 0.02 µg/mL
EC50 (BDBV sGP): 0.006 µg/mL
EC50 (MARV GP [5]): > 10 µg/mL

B9: EBOV63 (antibody, V domains shown)
VH: EVQLVESGGGLVKPGGSLRLSCAASGFTLNFYNMNWVRQAPGKGLEWVSSISSSSNYIYYADSVKGRFTISRDNARKSLYLQMNSLRAEDTAVYYCARDFVQLLIPQRDEWQGVHDYYGMDVWGQGTLVTVSS
VL: EIVLTQSPGTLSLSPGGRATLSCRASQSVSNSYLAWYQQKPGQAPRLLIYGASSRATGIPDRFSGSGSGTDFILTISRLEPEDFAVYYCQHYGSSQLTFGGGTKVEIK
EC50 [3]: 0.283 µg/mL
EC50 (EBOV sGP): 0.038 µg/mL
EC50 (SUDV GP (recombinant)): > 10 µg/mL

B10: 63 (antibody, V domains shown)
VH: EVQLVESGGGLVKPGGSLRLSCAASGFTLNFYNMNWVRQAPGKGLEWVSSISSSSNYIYYADSVKGRFTISRDNARKSLYLQMNSLRAEDTAVYYCARDFVQLLIPQRDEWQGVHDYYGMDVWGQGTLVTVSS
VL: EIVLTQSPGTLSLSPGGRATLSCRASQSVSNSYLAWYQQKPGQAPRLLIYGASSRATGIPDRFSGSGSGTDFILTISRLEPEDFAVYYCQHYGSSQLTFGGGTKVEIK
EC50 (BDBV GP [1]): > 10 µg/mL
EC50 (MARV GP [2]): > 10 µg/mL

B11: EBOV62 (antibody, V domains shown)
VH: EVQLVESGGGLVQPGGSLRLSCAASGFTFSSYWMSWVRQAPGKGLEWVANIKQDGSAKYYVDSVKGRFTISRDNAKNSLYLQMNSLRAEDTAVYYCARDGLLGISDLLYPIYYFDYWGQGTLVTVSS
VL: DIVMTQSPSSLSASVGDRVTITCRASQNIGSYLNWYQQKPGKAPNLLMYAASSLQSGVPSRFSGSGSGTDFTLTITSLQPEDFATYYCQQSYSIPRTFGQGTQLEIK
EC50 [3]: 0.228 µg/mL
EC50 (EBOV sGP): 0.051 µg/mL
EC50 (SUDV GP (recombinant)): > 10 µg/mL

B12: 62 (antibody, V domains shown)
VH: EVQLVESGGGLVQPGGSLRLSCAASGFTFSSYWMSWVRQAPGKGLEWVANIKQDGSAKYYVDSVKGRFTISRDNAKNSLYLQMNSLRAEDTAVYYCARDGLLGISDLLYPIYYFDYWGQGTLVTVSS
VL: DIVMTQSPSSLSASVGDRVTITCRASQNIGSYLNWYQQKPGKAPNLLMYAASSLQSGVPSRFSGSGSGTDFTLTITSLQPEDFATYYCQQSYSIPRTFGQGTQLEIK
EC50 (BDBV GP [1]): 0.508 µg/mL
EC50 (MARV GP [2]): > 10 µg/mL

B13: 87 (antibody, V domains shown)
VH: QVQLVQSGAEVKRPGASVKVSCKASGYTFTSYAISWVRQAPGQGLEWMGWISGNNGNTNYAQKLQGRLTMTTDTSTSTAYMELRSLRSDDTAVYYCARDADIVVVVGATGTYYYGMDVWGQGTLVTVSS
VL: DIVMTQSPSTLSASVGDRVTITCRASQSISSWLAWYQQKPGKAPKLLIYDASSLESGVPSRFSGSGSGTEFTLTISSLQPDDFATYYCQQYKSSLRTFGQGTQLEIK
EC50 (BDBV GP [1]): 1.39 µg/mL
EC50 (MARV GP [2]): > 10 µg/mL

B14: EBOV87 (antibody, V domains shown)
VH: QVQLVQSGAEVKRPGASVKVSCKASGYTFTSYAISWVRQAPGQGLEWMGWISGNNGNTNYAQKLQGRLTMTTDTSTSTAYMELRSLRSDDTAVYYCARDADIVVVVGATGTYYYGMDVWGQGTLVTVSS
VL: DIVMTQSPSTLSASVGDRVTITCRASQSISSWLAWYQQKPGKAPKLLIYDASSLESGVPSRFSGSGSGTEFTLTISSLQPDDFATYYCQQYKSSLRTFGQGTQLEIK
EC50 [3]: 0.724 µg/mL
EC50 (EBOV sGP): 0.051 µg/mL
EC50 (SUDV GP (recombinant)): 0.629 µg/mL
